IntAct's records for PubMed 16249186

B1: Protein E7 (Human papillomavirus type 1a), P06465 (parent)
chain: MVGEMPALKDLVLQLEPSVLDLDLYCYEEVPPDDIEEELVSPQQPYAVVASCAYCEKLVRLTVLADHSAIRQLEELLLRSLNIVCPLCTLQRQ
B2: Retinoblastoma-associated protein (Homo sapiens), P06400 (parent)
chain: MPPKTPRKTAATAAAAAAEPPAPPPPPPPEEDPEQDSGPEDLPLVRLEFEETEEPDFTALCQKLKIPDHVRERAWLTWEKVSSVDGVLGGYIQKKKELWGICIFIAAVDLDEMSFTFTELQKNIEISVHKFFNLLKEIDTSTKVDNAMSRLLKKYDVLFALFSKLERTCELIYLTQPSSSISTEINSALVLKVSWITFLLAKGEVLQMEDDLVISFQLMLCVLDYFIKLSPPMLLKEPYKTAVIPINGSPRTPRRGQNRSARIAKQLENDTRIIEVLCKEHECNIDEVKNVYFKNFIPFMNSLGLVTSNGLPEVENLSKRYEEIYLKNKDLDARLFLDHDKTLQTDSIDSFETQRTPRKSNLDEEVNVIPPHTPVRTVMNTIQQLMMILNSASDQPSENLISYFNNCTVNPKESILKRVKDIGYIFKEKFAKAVGQGCVEIGSQRYKLGVRLYYRVMESMLKSEEERLSIQNFSKLLNDNIFHMSLLACALEVVMATYSRSTSQNLDSGTDLSFPWILNVLNLKAFDFYKVIESFIKAEGNLTREMIKHLERCEHRIMESLAWLSDSPLFDLIKQSKDREGPTDHLESACPLNLPLQNNHTAADMYLSPVRSPKKKGSTTRVNSTANAETQATSAFQTQKPLKSTSLSLFYKKVYRLAYLRLNTLCERLLSEHPELEHIIWTLFQHTLQNEYELMRDRHLDQIMMCSMYGICKVKNIDLKFKIIVTAYKDLPHAVQETFKRVLIKEEEYDSIIVFYNSVFMQRLKTNILQYASTRPPTLSPIPHIPRSPYKFPSSPLRIPGGNIYISPLKSPYKISEGLPTPTKMTPRSRILVSIGESFGTSEKFQKINQMVCNSDRVLKRSAEGSNPPKPLKKLRFDIEGSDEADGSKHLPGESKFQQKLAEMTSTRTRMQKQKMNDSMDTSNKEEK
partner: B1 chain
B3: Protein E7 (Human papillomavirus type 1a), P06465 (parent)
chain: B1 chain
partner: B2 chain

Variants of: B1
Settings: with e2f3_human E2F3, O00716
Chain of e2f3_human E2F3, O00716 (O00716 whole entry): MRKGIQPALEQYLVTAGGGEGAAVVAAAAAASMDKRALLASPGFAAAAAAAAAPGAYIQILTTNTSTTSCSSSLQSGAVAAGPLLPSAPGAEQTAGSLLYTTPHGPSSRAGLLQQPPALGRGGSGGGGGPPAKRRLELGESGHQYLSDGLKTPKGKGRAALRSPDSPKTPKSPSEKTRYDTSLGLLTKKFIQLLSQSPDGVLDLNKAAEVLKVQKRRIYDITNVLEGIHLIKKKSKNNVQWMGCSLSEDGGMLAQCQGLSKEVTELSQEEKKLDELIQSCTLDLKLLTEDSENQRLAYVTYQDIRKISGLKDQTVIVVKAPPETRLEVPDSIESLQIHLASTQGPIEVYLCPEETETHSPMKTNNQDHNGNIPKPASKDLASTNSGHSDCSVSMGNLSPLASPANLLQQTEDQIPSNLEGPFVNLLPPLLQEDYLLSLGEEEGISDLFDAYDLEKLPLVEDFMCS

Row | Variant | effect of a mutation on the interaction
1 | R60E | decreasing interaction
2 | L61E | decreasing interaction

Variants of: B2
Settings: with ve7_hpv1 E7, P06465

Row | Variant | effect of a mutation on the interaction
3 | K810E;K814E;K824E | disrupting interaction

Variants of: B3
Settings: with rb_human RB1, P06400

Row | Variant | effect of a mutation on the interaction
4 | E74R;E75R | decreasing interaction
